Source: patent publication US20250197889

Substance: SmuCas9 (Simonsiella muelleri Cas9)
- Type II-C Cas9 ortholog cleavage tested for sensitivity to anti-CRISPR proteins (certain anti-CRISPRs): all three Type II-C Cas9 orthologs are inhibited by certain anti-CRISPRs

Substance: Nme1Cas9-Nme2Cas9PID chimera
- in vitro cleavage by the Nme1Cas9-Nme2Cas9PID chimera in the presence of Acr (AcrIIC5Smu): no inhibition by AcrIIC5Smu on this protein chimera was observed

Substance: Nme2Cas9 (Neisseria meningitidis strain De10444/De11444 Cas9), recombinant purified protein
- in vitro cleavage of a target DNA by Cas9-sgRNA (10:1 ratio of Acr:Cas9) (AcrE2): Nme2Cas9 efficiently cleaves a target containing a protospacer with an N4CC PAM in the presence of AcrE2 and AcrIIC5Smu
- in vitro cleavage of a target DNA by Cas9-sgRNA (10:1 Acr:Cas9 molar ratio) (AcrIIC1Nme): Acrs IIC1Nme, -IIC2Nme, -IIC3Nme and -IIC4Hpa inhibited Nme2Cas9 gene editing activity
- in vitro cleavage of a target DNA by Cas9-sgRNA (10:1 Acr:Cas9 molar ratio) (AcrIIC2Nme): Acrs IIC1Nme, -IIC2Nme, -IIC3Nme and -IIC4Hpa inhibited Nme2Cas9 gene editing activity
- in vitro cleavage of a target DNA by Cas9-sgRNA (10:1 Acr:Cas9 molar ratio) (AcrIIC3Nme): Acrs IIC1Nme, -IIC2Nme, -IIC3Nme and -IIC4Hpa inhibited Nme2Cas9 gene editing activity
- in vitro cleavage of a target DNA by Cas9-sgRNA (10:1 Acr:Cas9 molar ratio) (AcrIIC4Hpa): Acrs IIC1Nme, -IIC2Nme, -IIC3Nme and -IIC4Hpa inhibited Nme2Cas9 gene editing activity
- in vitro cleavage of a target DNA by Cas9-sgRNA (10:1 Acr:Cas9 molar ratio) (AcrIIC5Smu): AcrIIC5Smu did not inhibit Nme2Cas9 in vitro even at 10-fold excess
